Laboratory results reported in patent US20070231333A1, “ANTI-5T4 ANTIBODIES AND USES THEREOF” (Wyeth, priority 2006, published 2007).

How the values were obtained:
Assay type in all cases: binding
Design in all cases: key: +: binding; −: no binding; +/−: partial binding
[1] = tested on: black-tailed marmoset 5T4 ectodomain Fc; assay: Epitope mapping ELISA, 5T4 ectodomain Fc fusions
Experimental: (§1) To identify the epitopes to which each of the A1, A2, A3, and H8 antibodies bind, ELISA assays were performed using (1) 5T4 ectodomain Fc constructs with deleted or mutated sequences, and (2) 5T4 chimera constructs transiently expressed in COS-1 cells. The ectodomain includes the amino-terminal region, two leucine-rich repeats, and the intervening hydrophilic region. Fusion proteins containing a 5T4 ectodomain and a Fc constant regions from human IgG1 were prepared using mouse 5T4 (amino acids 1-361), rat 5T4 (amino acids 1-361), cynomologous monkey 5T4 (amino acids 1-355), chimpanzee 5T4 (amino acids 1-355), and black-tailed marmoset (amino acids 1-355). The 5T4 chimera constructs are depicted in FIG. 5. The binding results are summarized in Table 5, which indicates specific binding, partial binding, or lack of binding, by each of the H8, A1, A2, and A3 antibodies.

[2] = tested on: chimpanzee 5T4 ectodomain Fc; assay: Epitope mapping ELISA, 5T4 ectodomain Fc fusions
Experimental: as §1

[3] = molecular target: T1, cynomologous monkey 5T4 ectodomain Fc (Macaca fascicularis, UniProt Q4R8Y9, G135A/G313E/S41F); assay: Epitope mapping ELISA, 5T4 ectodomain Fc fusions
T1 construct: cynomologous monkey 5T4 (amino acids 1-355); made in house; host or cells: COS-1 cells (transient)
T1 sequence (Q4R8Y9 35-355 S41F/G135A/G313E): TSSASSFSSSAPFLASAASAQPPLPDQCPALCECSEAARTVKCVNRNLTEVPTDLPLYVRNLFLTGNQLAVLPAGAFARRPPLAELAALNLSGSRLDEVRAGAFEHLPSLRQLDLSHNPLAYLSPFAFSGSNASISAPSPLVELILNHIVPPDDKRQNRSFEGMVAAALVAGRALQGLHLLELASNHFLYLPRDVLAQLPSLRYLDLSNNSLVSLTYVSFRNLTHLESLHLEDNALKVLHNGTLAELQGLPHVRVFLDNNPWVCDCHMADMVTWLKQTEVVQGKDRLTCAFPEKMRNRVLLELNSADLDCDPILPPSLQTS
Experimental: as §1

human 5T4 ectodomain Fc = molecular target: T2, human 5T4 ectodomain Fc (Homo sapiens, UniProt Q13641); assay: Epitope mapping ELISA, 5T4 ectodomain Fc fusions
T2 construct: Human; 100; 1-355; made in house; host or cells: COS-1 cells (transient)
T2 sequence (Q13641 32-355): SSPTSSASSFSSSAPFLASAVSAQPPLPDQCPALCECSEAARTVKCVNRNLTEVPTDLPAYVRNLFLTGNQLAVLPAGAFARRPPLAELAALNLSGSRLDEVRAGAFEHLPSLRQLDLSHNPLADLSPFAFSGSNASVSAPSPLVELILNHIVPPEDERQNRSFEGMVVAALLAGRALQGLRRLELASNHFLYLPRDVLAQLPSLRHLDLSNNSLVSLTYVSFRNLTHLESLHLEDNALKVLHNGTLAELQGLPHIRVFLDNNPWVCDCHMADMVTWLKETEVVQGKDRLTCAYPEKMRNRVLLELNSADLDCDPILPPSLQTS
Experimental: as §1

mouse 5T4 ectodomain Fc = molecular target: T3, mouse 5T4 ectodomain Fc (Mus musculus, UniProt Q9Z0L0); assay: Epitope mapping ELISA, 5T4 ectodomain Fc fusions
T3 construct: mouse 5T4 (amino acids 1-361); made in house; host or cells: COS-1 cells (transient)
T3 sequence (Q9Z0L0 32-361): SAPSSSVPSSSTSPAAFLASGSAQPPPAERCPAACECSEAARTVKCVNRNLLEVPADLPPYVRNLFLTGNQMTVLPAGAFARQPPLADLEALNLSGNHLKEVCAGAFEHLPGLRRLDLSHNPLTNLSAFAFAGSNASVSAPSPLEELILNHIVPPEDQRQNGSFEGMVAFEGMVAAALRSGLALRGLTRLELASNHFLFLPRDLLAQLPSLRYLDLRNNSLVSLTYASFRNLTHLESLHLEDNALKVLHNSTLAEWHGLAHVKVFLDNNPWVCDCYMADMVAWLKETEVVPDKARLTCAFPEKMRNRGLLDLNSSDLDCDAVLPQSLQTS
Experimental: as §1

rat 5T4 ectodomain Fc = molecular target: T4, rat 5T4 ectodomain Fc (Rattus norvegicus, UniProt Q5PQV5); assay: Epitope mapping ELISA, 5T4 ectodomain Fc fusions
T4 construct: rat 5T4 (amino acids 1-361); made in house; host or cells: COS-1 cells (transient)
T4 sequence (Q5PQV5 32-361): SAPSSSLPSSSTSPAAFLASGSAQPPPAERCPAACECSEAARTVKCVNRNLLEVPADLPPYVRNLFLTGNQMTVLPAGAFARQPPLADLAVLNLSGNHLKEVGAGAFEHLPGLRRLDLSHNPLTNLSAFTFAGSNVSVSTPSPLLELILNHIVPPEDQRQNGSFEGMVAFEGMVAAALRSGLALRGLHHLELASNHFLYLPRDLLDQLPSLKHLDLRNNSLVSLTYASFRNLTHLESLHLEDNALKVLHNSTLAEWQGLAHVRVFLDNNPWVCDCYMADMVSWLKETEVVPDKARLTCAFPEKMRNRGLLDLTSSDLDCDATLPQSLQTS
Experimental: as §1

[4] = molecular target: T5, human/mouse 173-361 5T4 chimera (Homo sapiens, UniProt Q13641, A205S/A340S/D319A/E189Q/E336D/G276S/G317D/H238Y/H301Y/I287V/I347V/INS199AFEGMV/L204R/L281W/P285A/P346A/P350Q/Q210R/Q282H/Q316P/R193G/R207L/R213T/R288K/S242R/T307A/V176E/V200A/V229L/V252A/V333G/Y224F/Y325F); assay: Epitope mapping ELISA, human/mouse 5T4 chimeras
T5 construct: made in house; host or cells: COS-1 cells (transient)
T5 sequence (Q13641 with tags, fused parts or gaps V176E/E189Q/R193G/INS199AFEGMV/V200A/L204R/A205S/R207L/Q210R/R213T/Y224F/V229L/H238Y/S242R/V252A/G276S/L281W/Q282H/P285A/I287V/R288K/H301Y/T307A/Q316P/G317D/D319A/Y325F/V333G/E336D/A340S/P346A/I347V/P350Q limits assumed): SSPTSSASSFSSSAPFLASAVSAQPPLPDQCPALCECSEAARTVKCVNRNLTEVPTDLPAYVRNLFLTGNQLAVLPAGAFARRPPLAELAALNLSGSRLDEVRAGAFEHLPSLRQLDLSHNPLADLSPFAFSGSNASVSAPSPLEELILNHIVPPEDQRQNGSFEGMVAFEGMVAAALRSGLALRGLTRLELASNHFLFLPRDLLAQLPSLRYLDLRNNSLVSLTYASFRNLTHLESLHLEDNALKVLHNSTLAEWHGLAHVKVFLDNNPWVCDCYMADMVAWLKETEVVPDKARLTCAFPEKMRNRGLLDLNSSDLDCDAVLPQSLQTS
Experimental: as §1

[5] = tested on: human/mouse 83-163 5T4 chimera; assay: Epitope mapping ELISA, human/mouse 5T4 chimeras
Experimental: as §1

Sequence of black-tailed marmoset 5T4 ectodomain Fc (as listed by the source): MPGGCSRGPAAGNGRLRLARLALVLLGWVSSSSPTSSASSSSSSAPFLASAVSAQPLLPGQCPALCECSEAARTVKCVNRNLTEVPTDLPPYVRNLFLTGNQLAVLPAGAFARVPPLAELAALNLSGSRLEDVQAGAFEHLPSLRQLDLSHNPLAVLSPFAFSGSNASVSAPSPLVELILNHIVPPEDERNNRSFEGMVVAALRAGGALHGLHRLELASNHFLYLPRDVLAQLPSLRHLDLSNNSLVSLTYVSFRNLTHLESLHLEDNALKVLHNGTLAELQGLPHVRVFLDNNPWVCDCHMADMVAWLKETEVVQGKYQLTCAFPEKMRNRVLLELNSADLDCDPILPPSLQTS

binding to 5T4 antigen construct [1]: +
binding to 5T4 antigen construct [2]: +
binding to 5T4 antigen construct [3]: +
binding to 5T4 antigen construct (human 5T4 ectodomain Fc): +
binding to 5T4 antigen construct (mouse 5T4 ectodomain Fc): −
binding to 5T4 antigen construct (rat 5T4 ectodomain Fc): −
binding to 5T4 antigen construct [4]: −
binding to 5T4 antigen construct [5]: +
B1: A2: murine anti-5T4 monoclonal antibody (IgG2b heavy chain); VH residues 19-135 of SEQ ID NO:6, VL residues 23-130 of SEQ ID NO:8 (antibody, listed as Mus musculus, V domains shown)
VH: MEWRIFLFILSGTAGVHSQVQLQQSRPELVKPGASVKMSCKASGYTFTDYVISWVKQRTGQGLEWIGEIYPGSNSIYYNEKFKGRATLTADKSSSTAYMQLSSLTSEDSAVYFCAMGGNYGFDYWGQGTTLTVSS
VL: MDFQVQIFSFLLISASVIMSRGQIVLTQSPAIMSASLGERVTLTCTASSSVNSNYLHWYQQKPGSSPKLWIYSTSNLASGVPARFSGSGSGTSYSLTISSMEAEDAATYYCHQYHRSPLTFGAGTKLELK
modifications: (1)..(18) leader sequence; (19)..(135) heavy chain variable region; (44)..(53) CDR1; (68)..(84) CDR2; (117)..(124) CDR3; (1)..(22) leader sequence; (23)..(130) light chain variable region; (46)..(56) CDR1; (73)..(79) CDR2; (112)..(120) CDR3
